Molecular target: FcγRIIIa on human PBMCs expressing heterozygous V158/F158 FcγRIIIa (human) (UniProt P08637)
Assay: cell-based or functional assay

FcγRIIIa on human PBMCs expressing heterozygous V158/F158 FcγRIIIa (human), sequence (P08637 17-254): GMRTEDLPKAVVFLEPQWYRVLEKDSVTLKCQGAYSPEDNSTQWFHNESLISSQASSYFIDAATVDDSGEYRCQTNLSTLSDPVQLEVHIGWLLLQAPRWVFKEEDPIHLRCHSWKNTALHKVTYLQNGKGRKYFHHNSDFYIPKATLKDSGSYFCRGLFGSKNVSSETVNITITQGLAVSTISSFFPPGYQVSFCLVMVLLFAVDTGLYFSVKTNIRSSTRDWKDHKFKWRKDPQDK

| Substance | ADCC EC50 | ADCC Fold WT | ADCC log(EC50) |
| --- | --- | --- | --- |
| S239D/I332E alemtuzumab (antibody) | 3 ng/mL | 3.3 fold | 0.49 |
| V264I/I332E alemtuzumab (antibody) | 4 ng/mL |  | 0.6 |
